The supplement of paper PMC9170038

System: MS2 coat protein
Test: apparent KD of MS2 coat protein; designed switch direction (-1 OFF switch, 1 ON switch): -1; higher = weaker reporter binding
In short: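 On Illumina chips, designed RNA switches with common flanks were made by stalled E. coli RNA polymerase. Titrations with SNAP-549-labelled MS2 coat protein, doubling from 0.7 or 1.5 nM to 3 µM, were done with no input, with 200 uM small-molecule ligand, or with an oligonucleotide input. Apparent KD is the median per design over clusters, from curve fits of normalised cluster fluorescence.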

[1] = input ligand: microRNA oligo, concentration not stated
[2] = Eterna round: R95, input ligand: FMN 200 uM
[3] = Eterna round: R95, input ligand: microRNA oligo, concentration not stated
[4] = Eterna round: R95, input ligand: none

| Sequence | apparent KD of MS2 coat protein (input ligand: FMN 200 uM) [nM] | apparent KD of MS2 coat protein (input ligand: none) [nM] | apparent KD of MS2 coat protein [1] [nM] | apparent KD of MS2 coat protein [2] [nM] | apparent KD of MS2 coat protein [3] [nM] | apparent KD of MS2 coat protein [4] [nM] |
| --- | --- | --- | --- | --- | --- | --- |
| CGUGUGUCAGGAUAUACGUUGGGCCAGCAUGGCUAAAGACAGUAGAAGGGACAUGAGGAUCACCCAUGUGGAGU [Eternabot (L2) Solution 4] (Eterna round: R97, puzzle: Exclusion 4) | 571 | 78.9 |  |  |  |  |
| CGUUCGCGAGGAUAUGCAUUCGAGUCCACUACGUGUCUGGGACUUGAGGAUCACCCAAGUAGAAGGCGCCUCCA [salish99_ex2_r4_650] (Eterna round: R97, puzzle: Exclusion 2) | 78.5 | 130 |  |  |  |  |
| CGUUCGCGAGGAUAUGCAUUCGAGUCCACUACGUGUCUGGGACUUGAGGAUCACCCAAGUAGAAGGCGCCUCCC [salish99_ex2_r4_649] (Eterna round: R97, puzzle: Exclusion 2) | 71.3 | 47.9 |  |  |  |  |
| CGUUCGCGAGGAUAUGCAUUCGAGUCCAUUACGUGUCUGGGACUUGAGGAUCACCCAAGUAGAAGGCGUCUCAC [salish99_ex2_r4_646] (Eterna round: R97, puzzle: Exclusion 2) | 135 | 154 |  |  |  |  |
| CGUUGGUCAGGAUAUGGUGGGCUGGUCGCGCGGCCGGGUGGCUAGAAGGGACAUGAGGAUCACCCAUGUACGGC [excls4-IX] (Eterna round: R96, puzzle: Exclusion 4) | 60.3 | 48.9 | 30.1 |  |  |  |
| CGUUGUAUAGGAUAUACAUGAGGAUCACCCAUGUGAAAUUAUAGUGAGGAAAUGAAAAGUAGAAGGGUAUGACA [Mod of Mat 7 - Jieux - Exclusion 3] (Eterna round: R97, puzzle: Exclusion 3) | 35.5 | 45.3 |  |  |  |  |
| CUAAAUCAUGUAGGAUAUGCGUGGCAAAGCUAUGCAGAAGGACAUGAGGAUCACCCAUGUCAUUCCGUCUGGGAACAGACGGGA [Mat - Exclusion NG 1 - Mod of JL - D52] (Eterna round: R96, puzzle: Exclusion NG 1) | 158 | 24.5 | 17.5 |  |  |  |
| CUAAAUCAUGUAGGAUAUGCGUGGCAAAGCUAUGCAGAAGGACAUGAGGAUCACCCAUGUGCUUCCGUCUGCGUACAGACGGUA [Mat - Exclusion NG 1 - Mod of JL - D21] (Eterna round: R96, puzzle: Exclusion NG 1) | 551 | 110 | 79.2 |  |  |  |
| CUAAAUCAUGUAGGAUAUGCGUGGCGAAGCUAUGCAGAAGGACAUGAGGAUCACCCAUGUCUUUCCGUCUGCGUACAGACGGAA [JL ENG1 1.19] (Eterna round: R96, puzzle: Exclusion NG 1) | 303 | 23.5 | 17.3 |  |  |  |
| CUAAAUCAUGUAGGAUAUGCGUGGCGAAGCUAUGCAGAAGGACAUGAGGAUCACCCAUGUGCUUCCGUCUGCGUACAGACGGUA [JL ENG1 1.16] (Eterna round: R96, puzzle: Exclusion NG 1) | 136 | 83.3 | 59.7 |  |  |  |
| CUAGAGUGAGGAUAUACGAGAUCGAAAGAUCGGCGAUCCCUACAUGAGGAUCACCCAUGUAGAAGGCACUCUAG [Mod 12 - Jieux - Exclusion 2] (Eterna round: R97, puzzle: Exclusion 2) | 115 | 16 |  |  |  |  |
| CUAGAUCUUCGGAUCUAGGACAUGAGGAUCACCCAUGUCACGAGCAGAUCUUCAUGCAAGCUUUUUGCUCGUCUUAU [Sensor v3 - Turn-off variant 1 - 37] (Eterna round: R96, puzzle: Sensor v3, turn-off variant 1) | 27 | 29.2 | 339 |  |  |  |
| CUAGAUCUUCGGAUCUAGGACAUGAGGAUCACCCAUGUCACGAGCAGAUCUUCAUGCAAGCUUUUUGCUCGUCUUAU [Sensor v3 - Turn-off variant 1 - 37] (puzzle: Sensor v3, turn-off variant 1) |  |  |  | 27.3 | 409 | 33.4 |
| CUAGAUCUUCGGAUCUAGUACAUGAGGAUCACCCAUGUGACGAGUAGAUCCUCAAACAAGCUUUUUGCUCGUCUUAU [Sensor v3 - Turn-off variant 1 - 20] (Eterna round: R96, puzzle: Sensor v3, turn-off variant 1) | 132 | 194 | 16.4 |  |  |  |
| CUAGAUCUUCGGAUCUAGUACAUGAGGAUCACCCAUGUGACGAGUAGAUCCUCAAACAAGCUUUUUGCUCGUCUUAU [Sensor v3 - Turn-off variant 1 - 20] (puzzle: Sensor v3, turn-off variant 1) |  |  |  | 43.3 | 9.51 | 111 |
| CUAGAUCUUCGGAUCUAGUACAUGAGGAUCACCCAUGUGACGAGUAUAUCUUCAAACAAGCUUUUUGCUCGUCUUAU [Sensor v3 - Turn-off variant 1 - 24] (puzzle: Sensor v3, turn-off variant 1) |  |  |  | 37.3 | 49.5 | 40.6 |
| CUAGAUCUUCGGAUCUAGUACAUGAGGAUCACCCAUGUGACGAGUUACAUGUUUUACAAGCUUUUUGCUCGUCUUAU [Sensor v3 - Turn-off variant 1 - 13] (puzzle: Sensor v3, turn-off variant 1) |  |  |  | 39.4 | 90.7 | 40.5 |

| Sequence | apparent KD of MS2 coat protein (input ligand: FMN 200 uM) [nM] | apparent KD of MS2 coat protein (input ligand: none) [nM] | apparent KD of MS2 coat protein [1] [nM] | apparent KD of MS2 coat protein [2] [nM] | apparent KD of MS2 coat protein [3] [nM] | apparent KD of MS2 coat protein [4] [nM] |
| --- | --- | --- | --- | --- | --- | --- |
| CUAGCGAGUGUAGGAUAUCGGACUGUUUCAGUCUGAGAAGGACAUGAGGAUCACCCAUGUGUAGCUACGUGAGUAGCACGCUAG [JL ENG1 3.88] (Eterna round: R96, puzzle: Exclusion NG 1) | 40.2 | 22.3 | 15 |  |  |  |
| CUAGCGGAUGUAGGAUAUCGGACUGUUUCAGUCUGAGAAGGACAUGAGGAUCACCCAUGUAUAGCUACGUGAGUAGCUCGCUAG [JL ENG1 3.95] (Eterna round: R96, puzzle: Exclusion NG 1) | 38.1 | 22.8 | 15.3 |  |  |  |
| CUAGCGGAUGUAGGAUAUCGGACUGUUUCAGUCUGAGAAGGACAUGAGGAUCACCCAUGUAUAGCUGCGUGAGUAGCUCGCUAG [JL ENG1 3.96] (Eterna round: R96, puzzle: Exclusion NG 1) | 39.2 | 19.8 | 17.5 |  |  |  |
| CUAGUAUAUCAGGAUAUGAUUUUAUAUAGUUGAUCAGAAGGGAUAACAUGAGGAUCACCCAUGUUAAGGAGUGA [JR_Ex6_Sub042] (Eterna round: R97, puzzle: Exclusion 6) | 99.2 | 38.7 |  |  |  |  |
| CUAGUCCGAGGAUAUAUUAUGUGAAACAUGAGGAUCACCCAUGUAAUAUGAUGGAAAUAAAUAGAAGGCGGACUAG [Mat - Exclusion 5 - JL mod - D33] (puzzle: Exclusion 5) |  |  |  | 25.7 | 30.9 | 30.2 |
| CUCAGACAUGAGGAUCACCCAUGUGAGGAUAUGAUGCGAUCGUCGAAAGACGAUAGCAUCAGAAGGCACAAAUG [Fiskers Ex 1 - 24] (puzzle: Exclusion 1) |  |  |  |  | 71.2 |  |
| CUCAUGCCUGAGGAUAUGCUGUACAAAAGUACUGCAGAAGGCAGGACAUGAGGAUCACCCAUGUGGCGAAAGCC [Omei Ex G10] (Eterna round: R97, puzzle: Exclusion 6) | 13.4 | 198 |  |  |  |  |
| CUCAUGUGAGGAUAUGUGAUCUGCUUUCUGUGUAGAUGAUCACAGAAGGCACAUGAGGAUCACCCAUGUAGAUC [Ex4 - 3 - 28] (Eterna round: R96, puzzle: Exclusion 4) | 65.7 | 91 | 93.9 |  |  |  |
| CUCAUGUGAGGAUAUGUGAUCUGCUUUCUGUGUAGAUGAUCACAGAAGGCACAUGAGGAUCACCCAUGUAGAUC [Ex4 - 3 - 28] (puzzle: Exclusion 4) |  |  |  |  | 67.5 |  |
| CUCCGGCGUGUAGGAUAUGGAUCCGAUUAGGAUCCAGAAGGACAUGAGGAUCACCCAUGUACAUGUAGACGGUCGUCACCGGGC [salish99_ExNG1_r04_208] (Eterna round: R96, puzzle: Exclusion NG 1) | 195 | 42.1 | 32 |  |  |  |
| CUCCUCAUGGCGCCUAAACACAUGAGGAUCACCCAUGUACAGGCUUUCUGCCGUCUUAUAAUAAAACCGAGGAUGCG [Soedlexe] (puzzle: Sensor v3, turn-off variant 1) |  |  |  | 33.6 | 212 | 42.1 |
| CUCCUCCCGAAGGAUAUCCACGCCAACUUCGUAGGAGAAGGUCGGACAUGAGGAUCACCCAUGUGGCCAUGGUU [Gezateza] (puzzle: Exclusion 6) |  |  |  |  | 16 |  |
| CUCCUCGUGGCGCCUAAACACAUGAGGAUCACCCAUGUACAGGCUUUUUGCCGUCUUACAAUAAAACCGAGGAUACG [Inveon] (puzzle: Sensor v3, turn-off variant 1) |  |  |  | 19.8 | 50.8 | 20.4 |
| CUCGGACAUGAGGAUCACCCAUGUGAGGAUAUGGUGCUAUCGUCAUUAGACGAUUGCGUUAGAAGGCACAAAUG [LRO-Excl1-28] (puzzle: Exclusion 1) |  |  |  |  | 35.2 |  |
| CUCGGGAGUCAGGAUAUCGGCACAUAUCAAUCACGAGAAGGGACGACAUGAGGAUCACCCAUGUGGGAAAAGAA [Bivetilaza] (puzzle: Exclusion 6) |  |  |  | 92.9 | 38.1 | 41.7 |
| CUCGUGUGAGGAUAUUCACACCCGUCAAAACAACGGACAAAGAAGAAGGCACAUGAGGAUCACCCAUGUAAAGA [Usenisor] (Eterna round: R97, puzzle: Exclusion 4) | 92.1 | 106 |  |  |  |  |
